Laboratory results taken from article PMC7147772, “Biochemical characterization of the Nocardia lactamdurans ACV synthetase” (PLoS ONE, 2020).

How the values were obtained:
Assay in all cases: ACV tripeptide formation, HPLC/MS
Assay type in all cases: biochemical, Amycolatopsis lactamdurans
[1] = system: CC(C)[C@H](N)C(=O)O; conditions: L-α-Aaa and L-Cys co-substrates, 5 mM ATP, 5 mM MgCl2, 2 mM DTT, CoA and Sfp, pH 7.0, 30 °C, module 3
[2] = system: N[C@@H](CCCC(=O)O)C(=O)O; conditions: L-Cys and L-Val co-substrates, 5 mM ATP, 5 mM MgCl2, 2 mM DTT, CoA and Sfp, pH 7.0, 30 °C, module 1
[3] = system: N[C@@H](CS)C(=O)O; conditions: L-α-Aaa and L-Val co-substrates, 5 mM ATP, 5 mM MgCl2, 2 mM DTT, CoA and Sfp, pH 7.0, 30 °C, module 2

Nl ACVS (L-δ-(α-aminoadipoyl)-L-cysteinyl-D-valine synthetase) (Amycolatopsis lactamdurans)
Km [1]: 150 ± 4 µM | Km [2]: 640 ± 16 µM | Km [3]: 40 ± 1 µM
